{
  "source": "paper PMC6449355",
  "about": "“A TetR-family transcription factor regulates fatty acid metabolism in the archaeal model organism Sulfolobus acidocaldarius” (Nature Communications, 2019)",
  "molecules": {"B1": {"name": "FadRSa (TetR-family transcriptional regulator encoded by Saci_1107), recombinant His-tagged (natural protein, Sulfolobus acidocaldarius, UniProt Q4J9S1 1-196, looked up)", "chain": "MMYRAPKTEKGKESLNKILDASVELIADKGFLSTSINDITSKAGVAYGLFYFYFKSKHDILDEIIRQFNRNMRYYLKTYTQNLDSRIDVEKVGMKKFLEWMNENKKYYKIFIETQVHRPDIYKWHFMKLAERYTTGLSEAMRRGEIINVDPELLSYVLIGIAHMLGKRYVLWSNSGLTLKQQRDLDLIIENMLTPR", "notes": "FadRSa, TetR-family regulator encoded by Saci_1107 of Sulfolobus acidocaldarius; the fadRSa coding region amplified from genomic DNA; An N-terminally His-tagged (pET45b) and a C-terminally His-tagged (pET24a) construct were both made; also called wildtype FadRSa; source: E. coli Rosetta (DE3), purified (heat treatment 80 °C, His GraviTrap IMAC)"}, "B2": {"name": "SeMet FadRSa (selenomethionine-substituted FadRSa) (natural protein, Sulfolobus acidocaldarius, UniProt Q4J9S1 1-196, looked up)", "chain": "B1 chain", "modifications": "selenomethionine-substituted", "notes": "FadRSa, TetR-family regulator encoded by Saci_1107 of Sulfolobus acidocaldarius; the fadRSa coding region in pET45b (BamHI/HindIII); One subunit (B) of the crystallised dimer carried an acyl-CoA, likely derived from E. coli; also called SeMet-substituted FadRSa; SeMet-derivated FadRSa"}, "B3": {"name": "FadRSa N37A (natural protein, Sulfolobus acidocaldarius, UniProt Q4J9S1 1-196, looked up)", "chain": "B1 chain with N37A", "notes": "FadRSa, encoded by Saci_1107 of Sulfolobus acidocaldarius; made by site-directed mutagenesis with pET24axfadRSaNdenull as template; also called N37A mutant FadRSa; source: E. coli Rosetta (DE3), purified (heat treatment 80 °C, His GraviTrap IMAC)"}, "B4": {"name": "Saci_1123 operator 45-bp (dsDNA)", "DNA 1": "ACTACATAATCAGTTGATTATAATGTCAACTTTATAAAGTGGTGT", "DNA 2": "ACACCACTTTATAAAGTTGACATTATAATCAACTGATTATGTAGT"}, "B5": {"name": "mutated Saci_1123 operator 45-bp (dsDNA)", "DNA 1": "B4 DNA 1 with A9G, A20C", "DNA 2": "B4 DNA 2 with T26G, T37C"}, "B6": {"name": "fadRSa operator 21-mer (dsDNA)", "DNA 1": "GTCGACTCAAAAATCAAGTAG", "DNA 2": "CTACTTGATTTTTGAGTCGAC"}, "B7": {"name": "fadRSa operator 45-bp (dsDNA)", "DNA 1": "ACTACAATGATAGTCGACTCAAAAATCAAGTAGTAAAGGTGGTGT", "DNA 2": "ACACCACCTTTACTACTTGATTTTTGAGTCGACTATCATTGTAGT"}},
  "key": {"[1]": {"biological_target": "T1, FadRSa (Sulfolobus acidocaldarius, UniProt Q4J9S1, M101A)", "T1 construct": "gene Saci_1107; full-length, recombinant in E. coli Rosetta (DE3), His-tagged (N-terminal from pET45b or C-terminal from pET24a; mutants C-terminal), tag kept; homodimer, 44 kDa", "T1 sequence (Q4J9S1 entry or part of it M101A)": "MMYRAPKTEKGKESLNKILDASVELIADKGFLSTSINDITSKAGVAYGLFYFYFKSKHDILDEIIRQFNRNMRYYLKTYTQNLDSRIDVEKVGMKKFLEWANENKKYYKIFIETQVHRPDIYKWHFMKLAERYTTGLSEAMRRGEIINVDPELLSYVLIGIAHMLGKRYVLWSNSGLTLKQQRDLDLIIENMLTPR", "assay": "EMSA, ligand response of mutant (fraction of bound DNA)", "type": "binding", "details": "pH 8.0, 37 °C; allosteric inducer"}, "[2]": {"biological_target": "T2, FadRSa (Sulfolobus acidocaldarius, UniProt Q4J9S1)", "T2 construct": "gene Saci_1107; full-length, recombinant in E. coli Rosetta (DE3), His-tagged (N-terminal from pET45b or C-terminal from pET24a; mutants C-terminal), tag kept; homodimer, 44 kDa", "assay": "EMSA, release of FadRSa from operator DNA", "type": "binding", "details": "154-bp Saci_1106 operator probe, pH 8.0, 37 °C; allosteric inducer"}, "[3]": {"biological_target": "T3, FadRSa (Sulfolobus acidocaldarius) (UniProt Q4J9S1)", "T3 sequence": "B1 chain", "assay": "EMSA", "details": "EMSA/DNase I: 20 mM Tris-HCl pH 8.0, 1 mM MgCl2, 0.1 mM DTT, 12.5% glycerol, 50 mM NaCl, 0.4 mM EDTA, 37 C; EMSA with about 0.1 nM 32P-DNA and excess …"}, "[4]": {"biological_target": "T3, FadRSa (Sulfolobus acidocaldarius)", "assay": "DNase I footprinting", "details": "EMSA/DNase I: 20 mM Tris-HCl pH 8.0, 1 mM MgCl2, 0.1 mM DTT, 12.5% glycerol, 50 mM NaCl, 0.4 mM EDTA, 37 C; EMSA with about 0.1 nM 32P-DNA and excess …"}, "[5]": {"biological_target": "T3, FadRSa (Sulfolobus acidocaldarius)", "assay": "Cu-phenanthroline footprinting", "details": "EMSA/DNase I: 20 mM Tris-HCl pH 8.0, 1 mM MgCl2, 0.1 mM DTT, 12.5% glycerol, 50 mM NaCl, 0.4 mM EDTA, 37 C; EMSA with about 0.1 nM 32P-DNA and excess …"}, "[6]": {"biological_target": "T3, FadRSa (Sulfolobus acidocaldarius)", "assay": "footprinting", "details": "EMSA/DNase I: 20 mM Tris-HCl pH 8.0, 1 mM MgCl2, 0.1 mM DTT, 12.5% glycerol, 50 mM NaCl, 0.4 mM EDTA, 37 C; EMSA with about 0.1 nM 32P-DNA and excess …"}, "[7]": {"biological_target": "the molecule itself", "assay": "SEC; free purified FadRSa; apparent molecular weight from a calibrated column (Superdex 200 Increase 10/30 GL, 20 mM Na2HPO4 pH 7.4, 150 mM NaCl)"}, "[8]": {"biological_target": "the molecule itself", "assay": "crystal structure; SeMet FadRSa, SAD, 2.4 Å, space group P21, two molecules per asymmetric unit; acyl-CoA in subunit B"}, "[9]": {"biological_target": "the molecule itself", "assay": "native gel or EMSA; dimer with dimer on operator DNA: 45-bp 32P-labelled wildtype or mutated Saci_1123 operator probes; 20 mM Tris-HCl pH 8.0, 1 mM MgCl2, 0.1 mM DTT, 12.5% glycerol, 50 mM NaCl, 0.4 mM EDTA, 37 °C; 6% acrylamide gels"}, "[10]": {"biological_target": "T4, FadRSa (Sulfolobus acidocaldarius, UniProt Q4J9S1 1-196)", "T4 sequence": "B1 chain", "assay": "EMSA; single complex B; EMSA/DNase I: 20 mM Tris-HCl pH 8.0, 1 mM MgCl2, 0.1 mM DTT, 12.5% glycerol, 50 mM NaCl, 0.4 mM EDTA, 37 C; EMSA with about 0.1 nM 32P-DNA and excess nonspecific competitor DNA", "details": "protein: recombinant; (N-terminal pET45b or C-terminal pET24a His tag); chain copies: 2; label: 32P 5' end (EMSA); none (SEC); blunt"}, "[11]": {"biological_target": "T4, FadRSa", "assay": "EMSA; two complexes B1 and B2; EMSA/DNase I: 20 mM Tris-HCl pH 8.0, 1 mM MgCl2, 0.1 mM DTT, 12.5% glycerol, 50 mM NaCl, 0.4 mM EDTA, 37 C; EMSA with about 0.1 nM 32P-DNA and excess nonspecific competitor DNA", "details": "protein: recombinant; (N-terminal pET45b or C-terminal pET24a His tag); chain copies: 2; label: 32P 5' end; blunt"}, "[12]": {"biological_target": "T4, FadRSa", "assay": "X-ray crystallography; 3.29 A; three dimers with two duplexes; EMSA/DNase I: 20 mM Tris-HCl pH 8.0, 1 mM MgCl2, 0.1 mM DTT, 12.5% glycerol, 50 mM NaCl, 0.4 mM EDTA, 37 C; EMSA with about 0.1 nM 32P-DNA and excess nonspecific competitor DNA", "details": "protein: recombinant; (N-terminal pET45b or C-terminal pET24a His tag); chain copies: 2; blunt"}, "[13]": {"biological_target": "T4, FadRSa", "assay": "SEC; 40:1 protein:DNA; complex B2, 179 kDa, two dimers; EMSA/DNase I: 20 mM Tris-HCl pH 8.0, 1 mM MgCl2, 0.1 mM DTT, 12.5% glycerol, 50 mM NaCl, 0.4 mM EDTA, 37 C; EMSA with about 0.1 nM 32P-DNA and excess nonspecific competitor DNA", "details": "protein: recombinant; (N-terminal pET45b or C-terminal pET24a His tag); chain copies: 2; label: 32P 5' end (EMSA); none (SEC); blunt"}},
  "note": "Changes are numbered by the printed parent chain. Names and notes keep the numbering of the source.",
  "data": [
    {"molecule": "CCCCCCCC/C=C\\CCCCCCCC(=O)SCCNC(=O)CCNC(=O)[C@H](O)C(C)(C)COP(=O)(O)OP(=O)(O)OC[C@H]1O[C@@H](n2cnc3c(N)ncnc32)[C@H](O)[C@@H]1OP(=O)(O)O", "note": "[oleoyl-CoA]", "values": [
      {"measurement": "EMSA, ligand response of mutant (fraction of bound DNA)", "setting": "[1]", "result": "alanine mutation of the allosterically altered Met101 residue desensitizes the protein to oleoyl-CoA"},
      {"measurement": "EMSA, release of FadRSa from operator DNA", "setting": "[2]", "result": "addition of acetyl-CoA or hexanoyl-CoA does not affect sensitivity of the protein to oleoyl-CoA"}
    ]},
    {"molecule": "CGCCCTTTAGAGTGTGGAAGAAGTCAGTGGCACAGTTCTCTTCGTTTAAGCTTTTTTGTATCTCTTCATCAAAATTAAACTATTTGTTTTATTCATTATATCTTAATGTATTTGTGTAAATAATCTTCTTTATTCTAATCAATAAAATTATCGGAGAAGTTTATTATCGAGTTTACCTTTTAACTACAATGATAGTCGACTCAAAAATCAAGTAGTAAAGGTGGTGTGATGTATAGGGCTCC (double strand) [Saci_1107 (fadRSa) peak 2 fragment]", "values": [
      {"measurement": "binding", "setting": "[3]", "result": "binds"},
      {"measurement": "binding", "setting": "[4]", "result": "binds"},
      {"measurement": "binding", "setting": "[5]", "result": "binds"}
    ]},
    {"molecule": "CTACTTTCTAATATCACTATATTCACGCCTGGCAGACCCGACCTACTATGTTTAAACTTTTATAAAGTTGACATTATAATCAACTGATTATTTTAAAGGCAGTTCTAATTTTTCAAATAAACATAACACTAATCCTATAGATATAACTAATAAC (double strand) [Saci_1123 peak 4 footprint fragment]", "values": [
      {"measurement": "binding", "setting": "[6]", "result": "binds"}
    ]},
    {"molecule": "CTTCACTCCAAATCCTATTAGGAAAGCTGACACTGAACCGACCTTTTAACTACAATGATAGTCGACTCAAAAATCAAGTATAATATAGTCGAAATATGCCCTCTTGAATAAAACCATGAAATATAAATGAGTCTATTCTGATCTGATAAAGTTC (double strand) [Saci_1106 peak 1 fragment]", "values": [
      {"measurement": "binding", "setting": "[3]", "result": "binds"},
      {"measurement": "binding", "setting": "[4]", "result": "binds"}
    ]},
    {"molecule": "B1", "values": [
      {"measurement": "stoichiometry N", "setting": "[7]", "result": 2}
    ]},
    {"molecule": "B2", "values": [
      {"measurement": "binding result", "setting": "[8]", "result": "binds"}
    ]},
    {"molecule": "B3", "values": [
      {"measurement": "binding result", "setting": "[9]", "result": "binds"}
    ]},
    {"molecule": "B4", "values": [
      {"measurement": "binding result", "setting": "[10]", "result": "binds"}
    ]},
    {"molecule": "B5", "values": [
      {"measurement": "binding result", "setting": "[11]", "result": "binds"}
    ]},
    {"molecule": "B6", "values": [
      {"measurement": "binding result", "setting": "[12]", "result": "binds"}
    ]},
    {"molecule": "B7", "values": [
      {"measurement": "binding result", "setting": "[13]", "result": "binds"}
    ]}
  ]
}
